Laboratory results as given in paper PMC11169542, “A probe for NIR-II imaging and multimodal analysis of early Alzheimer’s disease by targeting CTGF” (Nature Communications, 2024).
Values joined by “and” are separate entries in the source; they are usually repeats but may differ in a detail not shown here. Equal entries are not always repeated. Ends that are not written are not given here.

Legend:
[1] = Pharmacokinetic study of DGC in C57BL/6J mice (serum Au by ICP-MS); type: in vivo; details: for AUC(0-t) (AUClast) / AUC(0-∞) (AUCINF_obs) / AµMC(0-t) (AUMClast) / AµMC(0-∞) (AUMCINF_obs) / Cmax / MRT(0-t) (MRTlast) / MRT(0-∞) (MRTINF_obs) / Vz/F (Vz_obs) / elimination half-life t1/2z (HL_Lambda_z) / CLz/F (Cl_obs) / Tmax: 20 mg/kg i.v. single dose, n=3; for AUC(0-t) (AUClast) / AUC(0-∞) (AUCINF_obs) / AµMC(0-t) (AUMClast) / AµMC(0-∞) (AUMCINF_obs) / Cmax / MRT(0-t) (MRTlast) / MRT(0-∞) (MRTINF_obs) / Vz/F (Vz_obs) / elimination half-life t1/2z (HL_Lambda_z) / CLz/F (Cl_obs) / Tmax / Clast / C0 / Cmax_D / Lambda_z: serum Au by ICP-MS; for AUC(0-t) (AUClast) / AUC(0-∞) (AUCINF_obs) / AµMC(0-t) (AUMClast) / AµMC(0-∞) (AUMCINF_obs) / Cmax / MRT(0-t) (MRTlast) / MRT(0-∞) (MRTINF_obs) / Vz/F (Vz_obs) / elimination half-life t1/2z (HL_Lambda_z) / CLz/F (Cl_obs) / Tmax / Clast_pred / AUCINF_D_obs / AUCINF_D_pred / AUCINF_pred / AUCall / AUClast_D / AUMCINF_pred / Cl_pred / MRTINF_pred / Vss_obs / Vss_pred / Vz_pred / C0 / Cmax_D / Lambda_z: WinNonlin; for CLz/F (Cl_obs) / Tmax: 20 mg/kg; for Clast_pred / Clast / AUCINF_D_obs / AUCINF_D_pred / AUCINF_pred / AUCall / AUClast_D / AUMCINF_pred / Cl_pred / MRTINF_pred / Vss_obs / Vss_pred / Vz_pred / C0 / Cmax_D / Lambda_z: 20 mg/kg i.v.; for Clast_pred / Clast: Tlast 48 h
Procedure: Male and female mice were given a single intravenous dose of 20 mg/ kg (n = 3). The blood of posterior orbital venous plexus was collected at continuous time points (0.083, 0.25, 0.5, 1, 2, 4, 8, 10, 12, 24, and 48 h) and the serum was rapid separation by centrifugation (1200×g at 4 °C, 10 min). Au content in the serum sample was detected by ICP-MS. The pharmacokinetic index was obtained by using winnonlin8.4 […] model.

[2] = Effect of DGC on hematology of mice; type: in vivo, C57BL/6J mice; details: for Mean hemoglobin content of red blood cells (MCH): in pg (unit assumed)
From the text: In order to clarify the NIR-II signal in AD brains when in vivo imaging is arisen from the DGC probe that bound to CTGF, we selected 3-month-old APP/PS1 mice representing early-stage AD and the age-matched WT mice as control to performed ex vivo multimodal analysis of the brain sections. […] To exclude the influence of vascular retention, we emptied the cerebral vessels by cardiac perfusion and performed ex vivo imaging of the brains. […] For brain sections made from AD mice after tail vein injection of DGC, the red fluorescence observation and LA-ICP-TOF-MS of DGC, as well as a POD-like catalysis test were performed. […] In Fig. 6c, the colocalization of DGC (red fluorescence) and CTGF (green fluorescence) on the ex vivo brain sections confirmed the specificity of DGC targeting CTGF in vivo. To further identify the cellular target of DGC in the brain of APP/PS1 mice, we carried out immunofluorescence staining on the ex vivo brain sections after tail vein injection of DGC where cell-specific fluorescent antibodies for microglia (Iba 1), neurons (NeuN), vascular endothelial cell (CD31) and reactive astrocytes (GFAP) were applied. In Fig. 6d, […] co-localizes with GFAP-positive active astrocytes and CD31-positive microvessels, but not with neurons or microglia. […] The biosafety of DGC in C57BL/6J mice under the NIR-II imaging condition was evaluated by blood tests (blood cells and biochemical analysis) and organ pathological analysis (H&E staining).

[3] = DGC group, mean of 3 mice, in 10^9/L (unit assumed)
[4] = DGC group, mean of 3 mice, in % (unit assumed)
[5] = DGC group, mean of 3 mice, in fL (unit assumed)
[6] = DGC group, mice 1, in fL (unit assumed)
[7] = DGC group, mice 2, in fL (unit assumed)
[8] = DGC group, mice 3, in fL (unit assumed)

DGC: CTGF-targeting peptide-coated gold nanocluster: one Au26 gold nanocluster coated by eight DAG cyclic peptides, NIR-II and red fluorescence (CDAGRKQKC; also: cyclic peptide, ring not given here, eight peptides on one Au26 nanocluster via Cys Au-S bonds)
AUC(0-t) (AUClast) ([1]; female C57BL/6J mice): 650.995 µg·h/mL
AUC(0-∞) (AUCINF_obs) ([1]; female C57BL/6J mice): 779.367 µg·h/mL
AµMC(0-t) (AUMClast) ([1]; female C57BL/6J mice): 10136.5 h*h*mg/L
AµMC(0-∞) (AUMCINF_obs) ([1]; female C57BL/6J mice): 19964.5 h*h*mg/L
Cmax ([1]; female C57BL/6J mice): 191.26 µg/mL
MRT(0-t) (MRTlast) ([1]; female C57BL/6J mice): 15.5708 h
MRT(0-∞) (MRTINF_obs) ([1]; female C57BL/6J mice): 25.6162 h
Vz/F (Vz_obs) ([1]; female C57BL/6J mice): 0.7329 L/kg
elimination half-life t1/2z (HL_Lambda_z) ([1]; female C57BL/6J mice): 19.7951 h
CLz/F (Cl_obs) ([1]; female C57BL/6J mice): 0.5 mL/min/kg and 0.4277 mL/min/kg
Tmax ([1]; female C57BL/6J mice): 4.8 min and 4.98 min
Clast_pred ([1]; female C57BL/6J mice): 4.584 µg/mL
Clast ([1]; female C57BL/6J mice): 4.495 µg/mL
AUCINF_D_obs ([1]; female C57BL/6J mice): 38.9684 kg·mg·h/L/mg
AUCINF_D_pred ([1]; female C57BL/6J mice): 39.095 kg·mg·h/L/mg
AUCINF_pred ([1]; female C57BL/6J mice): 781.9 µg·h/mL
AUCall ([1]; female C57BL/6J mice): 650.995 µg·h/mL
AUClast_D ([1]; female C57BL/6J mice): 32.5498 kg·mg·h/L/mg
AUMCINF_pred ([1]; female C57BL/6J mice): 20158.4 h*h*mg/L
Cl_pred ([1]; female C57BL/6J mice): 0.4263 mL/min/kg
MRTINF_pred ([1]; female C57BL/6J mice): 25.7813 h
Vss_obs ([1]; female C57BL/6J mice): 0.6574 L/kg
Vss_pred ([1]; female C57BL/6J mice): 0.6595 L/kg
Vz_pred ([1]; female C57BL/6J mice): 0.7305 L/kg
C0 ([1]; female C57BL/6J mice): 267.189 µg/mL
Cmax_D ([1]; female C57BL/6J mice): 9.563 kg·mg/L/mg
Lambda_z ([1]; female C57BL/6J mice): 0.03502 h⁻¹
elimination half-life (t1/2z) ([1]; in mice, sex not specified): about 20 h
AUC(0-t) (AUClast) ([1]; male C57BL/6J mice): 615.219 µg·h/mL
AUC(0-∞) (AUCINF_obs) ([1]; male C57BL/6J mice): 735.649 µg·h/mL
AµMC(0-t) (AUMClast) ([1]; male C57BL/6J mice): 8803.77 h*h*mg/L
AµMC(0-∞) (AUMCINF_obs) ([1]; male C57BL/6J mice): 18299.4 h*h*mg/L
Cmax ([1]; male C57BL/6J mice): 172.688 µg/mL
MRT(0-t) (MRTlast) ([1]; male C57BL/6J mice): 14.31 h
MRT(0-∞) (MRTINF_obs) ([1]; male C57BL/6J mice): 24.8751 h
Vz/F (Vz_obs) ([1]; male C57BL/6J mice): 0.8386 L/kg
elimination half-life t1/2z (HL_Lambda_z) ([1]; male C57BL/6J mice): 21.3817 h
CLz/F (Cl_obs) ([1]; male C57BL/6J mice): 0.5 mL/min/kg and 0.4532 mL/min/kg
Tmax ([1]; male C57BL/6J mice): 4.8 min and 4.98 min
Clast_pred ([1]; male C57BL/6J mice): 3.998 µg/mL
Clast ([1]; male C57BL/6J mice): 3.904 µg/mL
AUCINF_D_obs ([1]; male C57BL/6J mice): 36.7825 kg·mg·h/L/mg
AUCINF_D_pred ([1]; male C57BL/6J mice): 36.9275 kg·mg·h/L/mg
AUCINF_pred ([1]; male C57BL/6J mice): 738.551 µg·h/mL
AUCall ([1]; male C57BL/6J mice): 615.219 µg·h/mL
AUClast_D ([1]; male C57BL/6J mice): 30.7609 kg·mg·h/L/mg
AUMCINF_pred ([1]; male C57BL/6J mice): 18528.2 h*h*mg/L
Cl_pred ([1]; male C57BL/6J mice): 0.4513 mL/min/kg
MRTINF_pred ([1]; male C57BL/6J mice): 25.0872 h
Vss_obs ([1]; male C57BL/6J mice): 0.6763 L/kg
Vss_pred ([1]; male C57BL/6J mice): 0.6794 L/kg
Vz_pred ([1]; male C57BL/6J mice): 0.8353 L/kg
C0 ([1]; male C57BL/6J mice): 204.126 µg/mL
Cmax_D ([1]; male C57BL/6J mice): 8.634 kg·mg/L/mg
Lambda_z ([1]; male C57BL/6J mice): 0.03242 h⁻¹
Basophil granulocyte count (Bas#) ([2]; C57BL/6J mice, 20 mg/kg DGC, n = 3, normal range 0.00 - 0.12): 0.02 ± 0.01 109/L
Eosinophil granulocyte count (Eos#) ([2]; C57BL/6J mice, 20 mg/kg DGC, n = 3, normal range 0.00 - 0.51): 0.04 ± 0.02 109/L
Percentage of Basophil granulocyte (Bas%) ([2]; C57BL/6J mice, 20 mg/kg DGC, n = 3, normal range 0.0 - 1.5): 0.27 ± 0.06%
Percentage of eosinophil granulocyte (Eos%) ([2]; C57BL/6J mice, 20 mg/kg DGC, n = 3, normal range 0.0 - 7.5): 0.47 ± 0.23%
Monocytes count (Mon#) ([2]; C57BL/6J mice, 20 mg/kg DGC, n = 3, normal range 0.04 - 1.40): 0.25 ± 0.1 109/L
Percentage of monocytes (Mon%) ([2]; C57BL/6J mice, 20 mg/kg DGC, n = 3, normal range 0.9 - 18.0): 3.07 ± 0.84%
Percentage of neutrophil (Neu%) ([2]; C57BL/6J mice, 20 mg/kg DGC, n = 3, normal range 6.5 - 50.0): 13.2 ± 1.31%
Percentage of lymphocyte (Lym%) ([2]; C57BL/6J mice, 20 mg/kg DGC, n = 3, normal range 40.0 - 92.0): 83 ± 2.08%
Mean concentration of red blood cell hemoglobin (MCHC) ([2]; DGC group, mean of 3 mice): 315.67 ± 5.69
Width of platelet distribution (PDW) ([2]; DGC group, mean of 3 mice): 15.23 ± 0.25
Basophil granulocyte count (Bas#) [2, 3]: 0.02 ± 0.01
Eosinophil granulocyte count (Eos#) [2, 3]: 0.04 ± 0.02
Lymphocyte count (Lym#) [2, 3]: 6.65 ± 0.78
Monocytes count (Mon#) [2, 3]: 0.25 ± 0.1
Neutrophil count (Neu#) [2, 3]: 1.07 ± 0.24
Platelet count (PLT) [2, 3]: 1228.67 ± 179.01
White blood cell count (WBC) [2, 3]: 8.03 ± 1.12
Red blood cell count (RBC) ([2]; DGC group, mean of 3 mice, in 10^12/L (unit assumed)): 10.16 ± 0.42
Coefficient of variation of red blood cell distribution width (RDW-CV) [2, 4]: 13.13 ± 1
Hematocrit (HCT) [2, 4]: 51.2 ± 1.93
Mean corpuscular volume (MCV) [2, 5]: 50.4 ± 0.17
Mean platelet volume (MPV) [2, 5]: 5.53 ± 0.15
Standard deviation of red blood cell distribution width (RDW-SD) [2, 5]: 27.8 ± 2.1
Hemoglobin (HGB) ([2]; DGC group, mean of 3 mice, in g/L (unit assumed)): 161.67 ± 8.02
Mean hemoglobin content of red blood cells (MCH) ([2]; DGC group, mean of 3 mice): 15.93 ± 0.25
Mean concentration of red blood cell hemoglobin (MCHC) ([2]; DGC group, mice 1): 311
Mean corpuscular volume (MCV) [2, 6]: 50.5
Mean platelet volume (MPV) [2, 6]: 5.7
Mean hemoglobin content of red blood cells (MCH) ([2]; DGC group, mice 1): 15.7
Mean concentration of red blood cell hemoglobin (MCHC) ([2]; DGC group, mice 2): 322
Mean corpuscular volume (MCV) [2, 7]: 50.2
Mean platelet volume (MPV) [2, 7]: 5.4
Mean hemoglobin content of red blood cells (MCH) ([2]; DGC group, mice 2): 16.2
Mean concentration of red blood cell hemoglobin (MCHC) ([2]; DGC group, mice 3): 314
Mean corpuscular volume (MCV) [2, 8]: 50.5
Mean platelet volume (MPV) [2, 8]: 5.5
Mean hemoglobin content of red blood cells (MCH) ([2]; DGC group, mice 3): 15.9
